Here are results for four molecules from patent US20160145657A1, “Methods and Materials for Producing 7-Carbon Chemicals via a C9 Route” (INVISTA North America S.á.r.l., priority 2014, published 2016).

Holding throughout (type): biochemical
The nature of series [1]: ω-transaminase activity, forward direction (pimelate semialdehyde to 7-aminoheptanoate), pyruvate formation by RP-HPLC. Conditions: for acceptance of pimelate semialdehyde as substrate (conversion of L-alanine to pyruvate) against the empty vector control: cell free extract, 10 mM pimelate semialdehyde, 10 mM L-alanine, pH 7.5, 25° C., 4 h, FIG. 14; for reversibility of ω-transaminase activity: pimelate semialdehyde accepted, 7-aminoheptanoate synthesized: conclusion from reverse and forward assays of Example 1. As to the method:
(§1) A nucleotide sequence encoding an N-terminal His-tag was added to the nucleic acid sequences from Chromobacterium violaceum, Pseudomonas syringae, Rhodobacter sphaeroides, and Vibrio fluvialis encoding the ω-transaminases of SEQ ID NOs: 7, 9, 10 and 12, respectively (see FIG. 6) such that N-terminal HIS tagged ω-transaminases could be produced. Each of the resulting modified genes was cloned into a pET21a expression vector under control of the T7 promoter and each expression vector was transformed into a BL21[DE3] E. coli host. The resulting recombinant E. coli strains were cultivated at 37° C. in a 250 mL shake flask culture containing 50 mL LB media and antibiotic selection pressure, with shaking at 230 rpm. Each culture was induced overnight at 16° C. using 1 mM IPTG.
(§2) The pellet from each induced shake flask culture was harvested via centrifugation. Each pellet was resuspended and lysed via sonication. The cell debris was separated from the supernatant via centrifugation and the cell free extract was used immediately in enzyme activity assays.
Enzyme activity in the forward direction (i.e., pimelate semialdehyde to 7-aminoheptanoate) was confirmed for the transaminases of SEQ ID NO 9, SEQ ID NO 10 and SEQ ID NO 12. Enzyme activity assays were performed in a buffer composed of a final concentration of 50 mM HEPES buffer (pH=7.5), 10 mM pimelate semialdehyde, 10 mM L-alanine and 100 μM pyridoxyl 5′ phosphate. Each enzyme activity assay reaction was initiated by adding a cell free extract of the ω-transaminase gene product or the empty vector control to the assay buffer containing the pimelate semialdehyde and incubated at 25° C. for 4 h, with shaking at 250 rpm. The formation of pyruvate was quantified via RP-HPLC.

The nature of series [2]: ω-transaminase activity, reverse direction (7-aminoheptanoate to pimelate semialdehyde), L-alanine formation by RP-HPLC. As to conditions: cell free extract, 10 mM 7-aminoheptanoate, 10 mM pyruvate, pH 7.5, 25° C., 4 h; FIG. 13. As to the method: as §1, §2
Enzyme activity assays in the reverse direction (i.e., 7-aminoheptanoate to pimelate semialdehyde) were performed in a buffer composed of a final concentration of 50 mM HEPES buffer (pH=7.5), 10 mM 7-aminoheptanoate, 10 mM pyruvate and 100 μM pyridoxyl 5′ phosphate. Each enzyme activity assay reaction was initiated by adding cell free extract of the ω-transaminase gene product or the empty vector control to the assay buffer containing the 7-aminoheptanoate and incubated at 25° C. for 4 h, with shaking at 250 rpm. The formation of L-alanine from pyruvate was quantified via RP-HPLC.

Series [3] can be described thus: ω-transaminase activity, 7-aminoheptanol to 7-oxoheptanol, L-alanine formation by RP-HPLC. Conditions: for acceptance of 7-aminoheptanol as substrate (conversion of pyruvate to L-alanine) against the empty vector control: cell free extract, 10 mM 7-aminoheptanol, 10 mM pyruvate, pH 7.5, 25° C., 4 h, FIG. 17; for acceptance of 7-oxoheptanol as substrate forming 7-aminoheptanol, concluded from reversibility: inferred from reverse direction assay and Example 1. As to the method: A nucleotide sequence encoding an N-terminal His-tag was added to the Chromobacterium violaceum, Pseudomonas syringae and Rhodobacter sphaeroides nucleic acids encoding the ω-transaminases of SEQ ID NOs: 7, 9 and 10, respectively (see FIG. 6) such that N-terminal HIS tagged ω-transaminases could be produced. The modified genes were cloned into a pET21a expression vector under the T7 promoter. Each expression vector was transformed into a BL21[DE3] E. coli host. Each resulting recombinant E. coli strain were cultivated at 37° C. in a 250 mL shake flask culture containing 50 mL LB media and antibiotic selection pressure, with shaking at 230 rpm. Each culture was induced overnight at 16° C. using 1 mM IPTG.
as §2
Enzyme activity assays in the reverse direction (i.e., 7-aminoheptanol to 7-oxoheptanol) were performed in a buffer composed of a final concentration of 50 mM HEPES buffer (pH=7.5), 10 mM 7-aminoheptanol, 10 mM pyruvate, and 100 μM pyridoxyl 5′ phosphate. Each enzyme activity assay reaction was initiated by adding cell free extract of the ω-transaminase gene product or the empty vector control to the assay buffer containing the 7-aminoheptanol and then incubated at 25° C. for 4 h, with shaking at 250 rpm. The formation of L-alanine was quantified via RP-HPLC.

Series [4] is described as follows: carboxylate reductase activity, N7-acetyl-7-aminoheptanoate to N7-acetyl-7-aminoheptanal, NADPH consumption at 340 nm. Conditions: purified enzyme enhanced by sfp gene product, 2 mM N7-acetyl-7-aminoheptanoate, pH 7.5, room temperature, 20 min; FIG. 10. How it is done:
The activity of each of the N-terminal His-tagged carboxylate reductases of SEQ ID NOs: 3, 5, and 6 (see Examples 2 and 3, and FIG. 6) for converting N7-acetyl-7-aminoheptanoate to N7-acetyl-7-aminoheptanal was assayed in triplicate in a buffer composed of a final concentration of 50 mM HEPES buffer (pH=7.5), 2 mM N7-acetyl-7-aminoheptanoate, 10 mM MgCl2, 1 mM ATP, and 1 mM NADPH. The assays were initiated by adding purified carboxylate reductase and phosphopantetheine transferase or the empty vector control to the assay buffer containing the N7-acetyl-7-aminoheptanoate then incubated at room temperature for 20 min. The consumption of NADPH was monitored by absorbance at 340 nm.

For the molecule “SEQ ID NO 10: Rhodobacter sphaeroides ω-transaminase, Genbank Accession No. ABA81135.1”, in series [1], the “acceptance of pimelate semialdehyde as substrate (conversion of L-alanine to pyruvate) against the empty vector control” value (shortened to “acceptance of pimelate semialdehyde”) is recorded as “accepted pimelate semialdehyde as substrate”; the “reversibility of ω-transaminase activity: pimelate semialdehyde accepted, 7-aminoheptanoate synthesized” value (“reversibility of ω-transaminase activity” for short) is “accepted pimelate semialdehyde as substrate and synthesized 7-aminoheptanoate as a reaction product”. Besides, the “acceptance of 7-aminoheptanoate as substrate (conversion of pyruvate to L-alanine) against the empty vector control” value (shortened to “acceptance of 7-aminoheptanoate”) in series [2] was “accepted 7-aminoheptanote as substrate”. Moreover, in series [3], the “acceptance of 7-aminoheptanol as substrate (conversion of pyruvate to L-alanine) against the empty vector control” value is “accepted 7-aminoheptanol as substrate”; the “acceptance of 7-oxoheptanol as substrate forming 7-aminoheptanol, concluded from reversibility” value is “accept 7-oxoheptanol as substrate and form 7-aminoheptanol”.

B1: SEQ ID NO 12: Vibrio fluvialis ω-transaminase, Genbank Accession No. AEA39183.1 (protein)
chain: MNKPQSWEARAETYSLYGFTDMPSLHQRGTVVVTHGEGPYIVDVNGRRYLDANSGLWNMVAGFDHKGLIDAAKAQYERFPGYHAFFGRMSDQTVMLSEKLVEVSPFDSGRVFYTNSGSEANDTMVKMLWFLHAAEGKPQKRKILTRWNAYHGVTAVSASMTGKPYNSVFGLPLPGFVHLTCPHYWRYGEEGETEEQFVARLARELEETIQREGADTIAGFFAEPVMGAGGVIPPAKGYFQAILPILRKYDIPVISDEVICGFGRTGNTWGCVTYDFTPDAIISSKNLTAGFFPMGAVILGPELSKRLETAIEAIEEFPHGFTASGHPVGCAIALKAIDVVMNEGLAENVRRLAPRFEERLKHIAERPNIGEYRGIGFMWALEAVKDKASKTPFDGNLSVSERIANTCTDLGLICRPLGQSVVLCPPFILTEAQMDEMFDKLEKALDKVFAEVA
With B1, in series [1], the “acceptance of pimelate semialdehyde” value was “accepted pimelate semialdehyde as substrate”; the “reversibility of ω-transaminase activity” value is “accepted pimelate semialdehyde as substrate and synthesized 7-aminoheptanoate as a reaction product”. The “acceptance of 7-aminoheptanoate” value in series [2] is given as “accepted 7-aminoheptanote as substrate”.

B2: SEQ ID NO 9: Pseudomonas syringae ω-transaminase, Genbank Accession No. AAY39893.1 (protein)
chain: MSANNPQTLEWQALSSEHHLAPFSDYKQLKEKGPRIITRAEGVYLWDSEGNKILDGMSGLWCVAIGYGREELADAASKQMRELPYYNLFFQTAHPPVLELAKAISDIAPEGMNHVFFTGSGSEGNDTMLRMVRHYWALKGQPNKKTIISRVNGYHGSTVAGASLGGMTYMHEQGDLPIPGVVHIPQPYWFGEGGDMTPDEFGIWAAEQLEKKILELGVENVGAFIAEPIQGAGGVIVPPDSYWPKIKEILSRYDILFAADEVICGFGRTSEWFGSDFYGLRPDMMTIAKGLTSGYVPMGGLIVRDEIVAVLNEGGDFNHGFTYSGHPVAAAVALENIRILREEKIVERVRSETAPYLQKRLRELSDHPLVGEVRGVGLLGAIELVKDKTTRERYTDKGAGMICRTFCFDNGLIMRAVGDTMIIAPPLVISFAQIDELVEKARTCLDLTLAVLQG
As for B2, in series [1], the “acceptance of pimelate semialdehyde” value is on record as “accepted pimelate semialdehyde as substrate”; the “reversibility of ω-transaminase activity” value was “accepted pimelate semialdehyde as substrate and synthesized 7-aminoheptanoate as a reaction product”. Moreover, the “acceptance of 7-aminoheptanoate” value in series [2] is “accepted 7-aminoheptanote as substrate”. In series [3], the “acceptance of 7-aminoheptanol as substrate (conversion of pyruvate to L-alanine) against the empty vector control” value is “accepted 7-aminoheptanol as substrate”; the “acceptance of 7-oxoheptanol as substrate forming 7-aminoheptanol, concluded from reversibility” value was “accept 7-oxoheptanol as substrate and form 7-aminoheptanol”.

B3: SEQ ID NO 3: Mycobacterium smegmatis carboxylate reductase, Genbank Accession No. ABK71854.1 (protein)
chain: MTSDVHDATDGVTETALDDEQSTRRIAELYATDPEFAAAAPLPAVVDAAHKPGLRLAEILQTLFTGYGDRPALGYRARELATDEGGRTVTRLLPRFDTLTYAQVWSRVQAVAAALRHNFAQPIYPGDAVATIGFASPDYLTLDLVCAYLGLVSVPLQHNAPVSRLAPILAEVEPRILTVSAEYLDLAVESVRDVNSVSQLVVFDHHPEVDDHRDALARAREQLAGKGIAVTTLDAIADEGAGLPAEPIYTADHDQRLAMILYTSGSTGAPKGAMYTEAMVARLWTMSFITGDPTPVINVNFMPLNHLGGRIPISTAVQNGGTSYFVPESDMSTLFEDLALVRPTELGLVPRVADMLYQHHLATVDRLVTQGADELTAEKQAGAELREQVLGGRVITGFVSTAPLAAEMRAFLDITLGAHIVDGYGLTETGAVTRDGVIVRPPVIDYKLIDVPELGYFSTDKPYPRGELLVRSQTLTPGYYKRPEVTASVFDRDGYYHTGDVMAETAPDHLVYVDRRNNVLKLAQGEFVAVANLEAVFSGAALVRQIFVYGNSERSFLLAVVVPTPEALEQYDPAALKAALADSLQRTARDAELQSYEVPADFIVETEPFSAANGLLSGVGKLLRPNLKDRYGQRLEQMYADIAATQANQLRELRRAAATQPVIDTLTQAAATILGTGSEVASDAHFTDLGGDSLSALTLSNLLSDFFGFEVPVGTIVNPATNLAQLAQHIEAQRTAGDRRPSFTTVHGADATEIRASELTLDKFIDAETLRAAPGLPKVTTEPRTVLLSGANGWLGRFLTLQWLERLAPVGGTLITIVRGRDDAAARARLTQAYDTDPELSRRFAELADRHLRVVAGDIGDPNLGLTPEIWHRLAAEVDLVVHPAALVNHVLPYRQLFGPNVVGTAEVIKLALTERIKPVTYLSTVSVAMGIPDFEEDGDIRTVSPVRPLDGGYANGYGNSKWAGEVLLREAHDLCGLPVATFRSDMILAHPRYRGQVNVPDMFTRLLLSLLITGVAPRSFYIGDGERPRAHYPGLTVDFVAEAVTTLGAQQREGYVSYDVMNPHDDGISLDVFVDWLIRAGHPIDRVDDYDDWVRRFETALTALPEKRRAQTVLPLLHAFRAPQAPLRGAPEPTEVFHAAVRTAKVGPGDIPHLDEALIDKYIRDLREFGLI
For the molecule B3, the “acceptance of N7-acetyl-7-aminoheptanoate as substrate (NADPH consumption) against the empty vector control” value in series [4] was “accepted N7-acetyl-7-aminoheptanoate as substrate”.
